According to patent US20040002439A1 (ORTHO MCNEIL PHARMACEUTICAL, published 2004):

Molecular target: Nav1.2 (a type II alpha subunit)
Experiment: cell-based or functional assay

B1: human voltage gated sodium channel β1A subunit (other)
chain: ACGGCVEVDSETEAVYGMTFKILCISCKRRSETNAETFTEWTFRQKGTEEFVKILRYENEVLQLEEDERFEGRVVWNGSRGTKDLQDLSIFITNVTYNHSGDYECHVYRLLFFENYEHNTSVVKKIHIEVVDKGESGAACPFTVTHRRARWRDRWQAVDRTGWLCAWPANRPQQRAEGEGSSPSCPLQLWPLFLSSPRRGQSMPVPHRRSGYRTQLCHLCCMTSGRCLLSLSQRVVLGLPGIIIRCVSRGVV
  ionic current conducted by Nav1.2 in Xenopus oocytes (cut-open oocyte voltage clamp): ~3 fold
